From IntAct's records for PubMed 16888622

B1: TATA-box-binding protein (Saccharomyces cerevisiae), P13393 (parent)
chain: MADEERLKEFKEANKIVFDPNTRQVWENQNRDGTKPATTFQSEEDIKRAAPESEKDTSATSGIVPTLQNIVATVTLGCRLDLKTVALHARNAEYNPKRFAAVIMRIREPKTTALIFASGKMVVTGAKSEDDSKLASRKYARIIQKIGFAAKFTDFKIQNIVGSCDVKFPIRLEGLAFSHGTFSSYEPELFPGLIYRMVKPKIVLLIFVSGKIVLTGAKQREEIYQAFEAIYPVLSEFRKM
partner: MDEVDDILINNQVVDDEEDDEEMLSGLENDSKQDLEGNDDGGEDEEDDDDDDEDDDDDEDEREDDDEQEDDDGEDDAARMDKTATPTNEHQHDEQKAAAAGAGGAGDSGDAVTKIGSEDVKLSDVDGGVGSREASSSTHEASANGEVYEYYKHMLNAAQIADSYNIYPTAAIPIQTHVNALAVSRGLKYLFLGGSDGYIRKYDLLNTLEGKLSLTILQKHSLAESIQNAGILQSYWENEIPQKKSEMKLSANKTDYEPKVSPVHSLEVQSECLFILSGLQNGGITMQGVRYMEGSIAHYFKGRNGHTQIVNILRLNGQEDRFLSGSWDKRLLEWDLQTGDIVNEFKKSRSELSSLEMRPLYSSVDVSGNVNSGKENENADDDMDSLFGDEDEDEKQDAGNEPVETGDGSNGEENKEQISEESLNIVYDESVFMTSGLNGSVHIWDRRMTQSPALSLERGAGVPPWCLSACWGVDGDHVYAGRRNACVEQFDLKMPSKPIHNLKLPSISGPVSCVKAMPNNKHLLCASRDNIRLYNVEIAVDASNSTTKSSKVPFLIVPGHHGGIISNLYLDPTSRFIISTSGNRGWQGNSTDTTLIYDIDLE

Variants of: B1
Settings: with spt8_yeast SPT8, P38915
With MADEERLKEFKEANKIVFDPNTRQVWENQNRDGTKPATTFQSEEDIKRAAPESEKDTSATSGIVPTLQNIVATVTLGCRLDLKTVALHARNAEYNPKRFAAVIMRIREPKTTALIFASGKMVVTGAKSEDDSKLASRKYARIIQKIGFAAKFTDFKIQNIVGSCDVKFPIELEGLAFSHGTFSSYEPELFPGLIYRMVKPKIVLLIFVSGKIVLTGAKQREEIYQAFEAIYPVLSEFRKM [R171E] the “effect of a mutation on the interaction” value was “disrupting interaction”.
